PMC6475063 (Journal of the American Heart Association: Cardiovascular …, 2019)

T1: YFP-tagged human AT1R (angiotensin II type 1 receptor) (human, UniProt P30556 1-359)
T1 sequence (looked up): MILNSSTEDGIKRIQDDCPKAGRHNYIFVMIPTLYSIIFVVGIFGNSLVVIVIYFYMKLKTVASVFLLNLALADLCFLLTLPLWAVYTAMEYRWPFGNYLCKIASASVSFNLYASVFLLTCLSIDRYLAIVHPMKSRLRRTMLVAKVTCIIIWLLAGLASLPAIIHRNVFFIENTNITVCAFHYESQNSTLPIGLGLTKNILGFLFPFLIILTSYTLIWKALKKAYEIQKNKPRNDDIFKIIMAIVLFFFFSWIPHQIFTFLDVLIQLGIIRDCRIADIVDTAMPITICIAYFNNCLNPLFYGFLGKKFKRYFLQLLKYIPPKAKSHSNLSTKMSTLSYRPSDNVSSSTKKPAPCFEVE


What was measured:
[1] = target: T1, YFP-tagged human AT1R (angiotensin II …); experiment: FRET or BRET
[2] = target: T1, YFP-tagged human AT1R (angiotensin II …); experiment: FRET or BRET; remark: listed apart in the source

relative change of BRET ratio, 2 min with Ang II [1]	relative change of BRET ratio, 5 min with Ang II [1]	relative change of BRET ratio, 10 min with Ang II [1]	relative change of BRET ratio, 20 min with Ang II [1]	relative change of BRET ratio, 30 min with Ang II [1]	EC50 of Ang II for the relative change of BRET ratio [2]	Binder
89.1 % (Ang II for 10 minutes set to 100%)	107 % (Ang II for 10 minutes set to 100%)	100 % (Ang II for 10 minutes set to 100%)	93.5 % (Ang II for 10 minutes set to 100%)	95.8 % (Ang II for 10 minutes set to 100%)	6.7 nM	RLuc-tagged bovine β-arrestin1 (natural protein, UniProt P17870 1-418, looked up) MGDKGTRVFKKASPNGKLTVYLGKRDFVDHIDLVEPVDGVVLVDPEYLKERRVYVTLTCAFRYGREDLDVLGLTFRKDLFVANVQSFPPAPEDKKPLTRLQERLIKKLGEHAYPFTFEIPPNLPCSVTLQPGPEDTGKACGVDYEVKAFCAENLEEKIHKRNSVRLVIRKVQYAPERPGPQPTAETTRQFLMSDKPLHLEASLDKEIYYHGEPISVNVHVTNNTNKTVKKIKISVRQYADICLFNTAQYKCPVAMEEADDTVAPSSTFCKVYTLTPFLANNREKRGLALDGKLKHEDTNLASSTLLREGANREILGIIVSYKVKVKLVVSRGGLLGDLASSDVAVELPFTLMHPKPKEEPPHREVPEHETPVDTNLIELDTNDDDIVFEDFARQRLKGMKDDKEEEEDGTGSPRLNDR
89.7 % (Ang II for 10 minutes set to 100%)	102 % (Ang II for 10 minutes set to 100%)	100 % (Ang II for 10 minutes set to 100%)	112 % (Ang II for 10 minutes set to 100%)	93.9 % (Ang II for 10 minutes set to 100%)	6.3 nM	RLuc-tagged bovine β-arrestin2 (natural protein, UniProt P32120 1-420, looked up) MGEKPGTRVFKKSSPNCKLTVYLGKRDFVDHLDKVDPVDGVVLVDPDYLKDRKVFVTLTCAFRYGREDLDVLGLSFRKDLFIANYQAFPPTPNPPRPPTRLQERLLRKLGQHAHPFFFTIPQNLPCSVTLQPGPEDTGKACGVDFEIRAFCAKSLEEKSHKRNSVRLVIRKVQFAPEKPGPQPSAETTRHFLMSDRSLHLEASLDKELYYHGEPLNVNVHVTNNSTKTVKKIKVSVRQYADICLFSTAQYKCPVAQVEQDDQVSPSSTFCKVYTITPLLSNNREKRGLALDGKLKHEDTNLASSTIVKEGANKEVLGILVSYRVKVKLVVSRGGDVSVELPFVLMHPKPHDHIALPRPQSAATHPPTLLPSAVPETDAPVDTNLIEFETNYATDDDIVFEDFARLRLKGLKDEDYDDQFC
